Laboratory results: patent US12565517B2, “Cyclic peptide having CTLA-4 inhibitory activity and use thereof” (GeneFrontier Corporation, priority 2019, dated 2026)

The substances below were run against T1, CTLA-4 (Homo sapiens, UniProt P16410) (assay: ELISA binding of clones after Affinity Maturation with random library (Tables 10, 11)). Settings: CTLA-4 binding ELISA of clones after Affinity Maturation from random (NNS) library; signal/noise ratio; clones of 4th or 5th round.
T1 sequence (P16410 36-223): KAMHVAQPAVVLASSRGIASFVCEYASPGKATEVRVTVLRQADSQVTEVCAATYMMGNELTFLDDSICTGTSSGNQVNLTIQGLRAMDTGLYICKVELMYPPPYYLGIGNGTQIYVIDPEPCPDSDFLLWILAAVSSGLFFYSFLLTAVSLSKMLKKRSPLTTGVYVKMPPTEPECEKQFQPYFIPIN
Experimental: After each round of Affinity Maturation, the cyclic peptide genes were recovered and subcloned into pET-Mal vector (FIG. 2) in the same manner as described above to perform base sequence analysis. For the 94 single colonies analyzed for sequence, E. coli transformants were inoculated into 100 μL of 2×YT medium containing ampicillin (final concentration 50 μg/mL), incubated at 37° C. for 3-5 hours (OD600=0.5-0.8), then added with IPTG (final concentration 0.5 mM) and incubated at 25° C. overnight. 10 μL of E. coli cultured medium was added with 90 μL of PBS and 40 μL of lysis reagent (20 μL BugBuster Protein Extraction Reagent (Novagen), 20 μL Lysozyme solution 2.5 mg/mL) to lyse E. coli cells for 1 hour at room temperature. The cell lysate was added with 40 μL of 12.5% skim milk solution (TBST) and blocked for 1 hour at room temperature. In parallel, antigen protein was immobilized overnight at 4° C. in 384-well plates at 100 ng/20 μL per well, and each well was washed twice with 100 μL/well of TBST, added with 100 μL/well of 5% skim milk solution (TBST) for blocking for 1 hour at room temperature, and washed twice with 100 μL/well of TBST to obtain antigen-immobilized plates. 20 μL/well of blocking-treated E. coli extract was added to the antigen-immobilized plates and gently stirred at room temperature using a plate mixer. After 1 hour, the plates were washed 5 times with 100 μL/well of TBST, 20 μL/well of anti-FLAG M2-HRP conjugate (1:2000 dilution, Sigma) was added and gently stirred on a plate mixer for 1 hour at room temperature. The plates were washed 5 times with 100 μL/well of TBST, and binding of cyclic peptides to the antigen was detected by 20 μL/well of chromogenic substrate (0.4 mg/mL 3,3′,5,5′-Tetramethyl-benzidine, 0.01% hydrogen peroxide). After 15 minutes of reaction at room temperature, the reaction was stopped with 20 μL/well of 2N HCl, and absorbance at 450 nm was measured using a plate reader (infinite F200: TECAN) (Table 5).
Oligo DNAs of a library were synthesized (see below), in which amino acid residues (positions 1, 4, 8, 10, +1 and +2) (corresponding to X1, […], X8, X10, X+1 and X+2) other than those essential or advantageous for CTLA-4 binding (2H, 3P, 5L, 6P, 7I, 9S, 11H, 12F) identified by alanine scanning were randomized (NNS).
Affinity Maturation was performed in the same manner as described above. The amount of biotinylated CTLA-4 immobilized on the magnetic beads was 10 pmol in the 1st round, 2 pmol in the 2nd round, and 1 pmol in the 3nd-5th rounds, respectively. The washing period was 2 hours for the 1st round, 19 hours for the 2nd round, 67 hours for the 3nd round, 140 hours for the 4th round, and 340 hours for the 5th round. Washing frequency was 1 time (2 hours) in the 1st round, 2 times (every 10 hours) in the 2nd round, 6 times (every 10 hours) in the 3rd round, 14 times (every 10 hours) in the 4th round, and 36 times (every 10 hours) in the 5th round.

ELISA S/N(SA)	Substance
27.6	C4m#19-5th4w-NN6-59 (GGCLHPHLPIWSLHFCPL; C4m#19-5th4w-NN6-59)
4.0	C4m#19-5th4w-NN6-40 (GGCFHPFLPIRSHHFCML; C4m#19-5th4w-NN6-40)
39.9	C4m#19-5th4w-NN6-15 (GGCLHPFLPIRSVHFCPF; left off: large carriers; small tags and cut ends)
18.4	C4m#19-5th2w-NNS6-3 (GGCAHPFLPIFSPHFCPF; C4m#19-5th2w-NNS6-3)
4.6	C4m#19-5th2w-NNS6-68 (GGCLHPWLPIVSCHFCPR; C4m#19-5th2w-NNS6-68)
22.1	C4m#19-5th4w-NN6-11 (GGCRHPFLPIWSHHFCVC; C4m#19-5th4w-NN6-11)
9.4	C4m#19-5th2w-NNS6-33 (GGCRHPFLPIWSFHFCWG; C4m#19-5th2w-NNS6-33)
31.1	C4m#19-5th2w-NNS6-21 (GGCWHPFLPIRSSHFCPS; C4m#19-5th2w-NNS6-21)
29.7	C4m#19-5th4w-NN6-19 (GGCRHPYLPIWSIHFCQK; C4m#19-5th4w-NN6-19)
27.9	C4m#19-5th4w-NN6-78 (GGCWHPALPIRSWHFCPR; C4m#19-5th4w-NN6-78)
4.4	C4m3127-4th-NNS6-20 (GGCLHPFLPILSLHFCPF; C4m3127-4th-NNS6-20) [Clone C4m3127-4th-NNS6-20]
5.6	C4m#19-5th4w-NN6-75 (GGCWHPFLPIKSVHFCCA; C4m#19-5th4w-NN6-75)
19.7	C4m#19-5th4w-NN6-86 (GGCAHPVLPIRSLHFCPH; C4m#19-5th4w-NN6-86)
5.9	C4m3127-4th-NNS6-94 (GGCRHPVLPIWSSHFCPW; C4m3127-4th-NNS6-94) [Clone C4m3127-4th-NNS6-94]
4.3	C4m#19-5th2w-NNS6-61 (GGCCHPWLPIRSVHFCPF; C4m#19-5th2w-NNS6-61)
14.7	C4m#19-5th4w-NN6-5-1 (GGCWHPYLPIQSLHFCPF; C4m#19-5th4w-NN6-5-1)
17.2	C4m#19-5th4w-NN6-62 (GGCQHPYLPIWSFHFCPF; C4m#19-5th4w-NN6-62)
27.7	C4m#19-5th4w-NN6-57 (GGCMHPYLPIVSVHFCPC; C4m#19-5th4w-NN6-57)
22.9	C4m3127-4th-NNS6-90 (GGCKHPVLPIVSLHFCPW; C4m3127-4th-NNS6-90) [Clone C4m3127-4th-NNS6-90]
15.1	C4m#19-5th4w-NN6-74 (GGCFHPFLPIYSWHFCAR; C4m#19-5th4w-NN6-74)
28.8	C4m#19-5th4w-NN6-9 (GGCFHPYLPIRSWHFCGR; C4m#19-5th4w-NN6-9)
32.2	C4m#19-5th4w-NN6-34 (GGCFHPFLPIRSDHFCSR; C4m#19-5th4w-NN6-34)
14.2	C4m#19-5th4w-NN6-46-1 (GGCVHPALPIWSFHFCPS; C4m#19-5th4w-NN6-46-1)
24.9	C4m#19-5th4w-NN6-79 (GGCWHPVLPIRSCHFCAV; C4m#19-5th4w-NN6-79)

The next lines start with the substance.

Substance	ELISA S/N(SA)
C4m#19-5th4w-NN6-36 (GGCRHPYLPIWSAHFCCR; C4m#19-5th4w-NN6-36)	5.7
C4m#19-5th4w-NN6-67 (GGCLHPFLPIRSVHFCPR; C4m#19-5th4w-NN6-67)	45.4
C4m3127-4th-NNS6-17 (GGCRHPVLPIVSLHFCPG; C4m3127-4th-NNS6-17) [Clone C4m3127-4th-NNS6-17]	20.4
C4m#19-5th4w-NN6-63 (GGCWHPYLPILSRHFCQA; C4m#19-5th4w-NN6-63)	16.5
C4m3127-4th-NNS6-3 (GGCSHPFLPIWSVHFCGQ; C4m3127-4th-NNS6-3) [Clone C4m3127-4th-NNS6-3]	10.9
C4m#19-5th4w-NN6-81 (GGCFHPYLPIRSWHFCSR; C4m#19-5th4w-NN6-81)	32.3
C4m#19-5th4w-NN6-30 (GGCWHPFLPIMSFHFCPY; C4m#19-5th4w-NN6-30)	16.7
C4m#19-5th4w-NN6-71 (GGCPHPWLPIASVHFCPF; C4m#19-5th4w-NN6-71)	17.4
C4m#19-5th4w-NN6-23 (GGCRHPHLPIWSWHFCGR; C4m#19-5th4w-NN6-23)	30.2
C4m#19-5th4w-NN6-6 (GGCMHPFLPIKSSHFCRK; C4m#19-5th4w-NN6-6)	16.1
C4m#19-5th4w-NN6-7 (GGCRHPFLPIWSWHFCPF; C4m#19-5th4w-NN6-7)	23.0
C4m3127-4th-NNS6-7 (GGCRHPFLPIRSPHFCGS; C4m3127-4th-NNS6-7) [Clone C4m3127-4th-NNS6-7]	4.7
C4m#19-5th4w-NN6-49 (GGCMHPYLPIRSFHFCSC; C4m#19-5th4w-NN6-49)	4.0
C4m#19-5th2w-NNS6-45 (GGCRHPFLPIWSVHFCWR; C4m#19-5th2w-NNS6-45)	11.0
C4m#19-5th2w-NNS6-66 (GGCRHPFLPIFSVHFCPF; C4m#19-5th2w-NNS6-66)	4.4
C4m#19-5th2w-NNS6-80 (GGCLHPFLPIVSWHFCPC; C4m#19-5th2w-NNS6-80)	3.6
C4m3127-4th-NNS6-87 (GGCRHPWLPIVSWHFCSR; C4m3127-4th-NNS6-87) [Clone C4m3127-4th-NNS6-87]	21.4

Substance	ELISA S/N(SA)
C4m#19-5th4w-NN6-77 (GGCRHPFLPIVSTHFCSR; C4m#19-5th4w-NN6-77)	30.5
C4m#19-5th4w-NN6-54 (GGCLHPGLPIRSLHFCPR; C4m#19-5th4w-NN6-54)	33.3
C4m#19-5th4w-NN6-32 (GGCPHPFLPIWSVHFCPF; C4m#19-5th4w-NN6-32)	27.2
C4m#19-5th2w-NNS6-86 (GGCFHPYLPIWSLHFCRS; C4m#19-5th2w-NNS6-86)	7.7
C4m#19-5th2w-NNS6-94 (GGCFHPYLPISSVHFCGR; C4m#19-5th2w-NNS6-94)	22.4
C4m#19-5th2w-NNS6-37 (GGCIHPFLPIWSIHFCSR; C4m#19-5th2w-NNS6-37)	9.4
C4m#19-5th4w-NN6-39 (GGCWHPFLPIRSLHFCPR; C4m#19-5th4w-NN6-39)	35.6
C4m#19-5th2w-NNS6-28 (GGCAHPYLPIRSVHFCPC; C4m#19-5th2w-NNS6-28)	6.3
C4m#19-5th4w-NN6-61 (GGCPHPMLPIFSVHFCPY; C4m#19-5th4w-NN6-61)	5.9
C4m3127-4th-NNS6-28 (GGCLHPFLPIFSSHFCAL; C4m3127-4th-NNS6-28) [Clone C4m3127-4th-NNS6-28]	23.2
C4m#19-5th4w-NN6-92-1 (GGCVHPFLPIRSVHFCAL; C4m#19-5th4w-NN6-92-1)	30.0
C4m#19-5th2w-NNS6-26 (GGCLHPFLPIVSIHFCSA; C4m#19-5th2w-NNS6-26)	5.8
C4m#19-5th4w-NN6-82 (GGCFHPFLPIRSLHFCCR; C4m#19-5th4w-NN6-82)	28.3
C4m#19-5th4w-NN6-37 (GGCLHPFLPISSWHFCGR; C4m#19-5th4w-NN6-37)	22.7
C4m3127-4th-NNS6-30 (GGCWHPCLPILSPHFCPR; C4m3127-4th-NNS6-30) [Clone C4m3127-4th-NNS6-30]	7.5
C4m#19-5th2w-NNS6-51 (GGCRHPFLPIVSLHFCPF; C4m#19-5th2w-NNS6-51)	15.8
C4m#19-5th4w-NN6-83 (GGCLHPLLPILSVHFCPS; C4m#19-5th4w-NN6-83)	12.0

Same assay, conditions: S/N ratio of CTLA-4 binding in ELISA; clones from 4th or 5th round of Affinity Maturation from random (NNS) library

ELISA S/N(SA)	Substance
3.1	C4m#19-5th2w-NNS6-41 (GGCWHPVLPIRSDHFCCR; C4m#19-5th2w-NNS6-41)
